# Target: CmbHLH2 (Chrysanthemum morifolium)
# Sequence (main, as listed by the source): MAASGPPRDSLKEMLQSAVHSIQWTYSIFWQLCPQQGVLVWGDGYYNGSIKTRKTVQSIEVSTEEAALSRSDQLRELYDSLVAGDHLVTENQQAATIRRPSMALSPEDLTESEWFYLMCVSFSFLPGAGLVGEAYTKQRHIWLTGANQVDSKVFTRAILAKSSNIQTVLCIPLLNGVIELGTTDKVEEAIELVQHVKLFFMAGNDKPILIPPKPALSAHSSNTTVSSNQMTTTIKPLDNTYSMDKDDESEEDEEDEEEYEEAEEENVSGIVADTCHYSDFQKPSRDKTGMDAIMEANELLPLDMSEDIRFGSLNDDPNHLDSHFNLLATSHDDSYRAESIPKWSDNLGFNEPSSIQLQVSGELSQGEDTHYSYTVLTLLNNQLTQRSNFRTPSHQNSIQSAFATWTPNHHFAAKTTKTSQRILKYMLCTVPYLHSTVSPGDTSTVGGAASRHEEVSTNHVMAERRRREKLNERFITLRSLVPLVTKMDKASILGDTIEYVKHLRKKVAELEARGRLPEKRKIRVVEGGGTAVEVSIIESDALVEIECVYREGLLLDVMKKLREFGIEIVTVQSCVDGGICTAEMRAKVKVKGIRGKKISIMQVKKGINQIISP
substance,measurement,value
CmMYB6 (natural protein),"CmDFR promoter activity in dual luciferase assay (LUC/REN) in tobacco leaves on co-expression of CmbHLH2 with CmMYB6, relative to the empty vector set as one",> 40 fold
